Reference: the supplement of paper PMC11780869

Tested on: Bacillus subtilis
Assay: cleaved RNA product abundance (RNA/gDNA barcode ratio) relative to median wild-type variant (ratio to wild type); higher = more accumulation of the downstream cleavage product
Method in brief: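 Oligos with a 9% error rate were used to build barcoded, mutagenized RNase Y cleavage-site windows within truncated aprE or tetM reporter mRNAs, which were integrated into the B. subtilis chromosome. Cultures were grown in LB at 37°C between OD600 0.0003 and 0.3. Cleaved RNA was gel-selected, reverse transcribed and barcode-sequenced, as were genomic DNA barcodes, and UMIs were collapsed. Cleaved product abundance is the scaled RNA:gDNA barcode ratio, with the median construct carrying the unmutated site as reference.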

[1] = experiment (reporter, strain, medium): exp 4a: truncated aprE reporter, strain BJT201 with 2% xylose (RNase J1 expressed), cleavage site: cggR-gapA (positions -7 to +36 mutated)
[2] = experiment (reporter, strain, medium): exp 8a: truncated aprE reporter, strain BJT201 with 2% xylose (RNase J1 expressed), cleavage site: glnRA (positions -5 to +31 mutated)
[3] = experiment (reporter, strain, medium): exp 2b: truncated aprE reporter, strain BJT200, cleavage site: cggR-gapA (positions -7 to +36 mutated)

Row | Sequence | cleaved RNA product abundance [1] | cleaved RNA product abundance [2] | cleaved RNA product abundance [3]
1 | ACAGACGAAGGAGCCGCAAAGAAGTTATTAAGAGATGAATAATCCCGCAATATAAATATCTCTCACTTATTTAAA | 0.154 |  | 
2 | CGACATGTCCCGCTTCTTTCATTAATCCGTTAGCAACTGTTTTGCTATTTAAATTTACCTTTTAAGAGGAGGAAT |  | 0.144 | 
3 | ACAGACGAAGGAGCCGCAAAAAATTTATTAAGGGATGAATAATCCCTCAATATAAATATCTCTCACTTATTTAAA | 0.66 |  | 1.19
4 | ACAGACGAAGGAGCCGCAAAGAAGTTATTAAGGGATGAATAATCCCAAAATATAAATATCTCTCACTTATTTAAA | 0.31 |  | 0.306
5 | CGACATGTCCCGCTTCTTTCATTAATCCTTTAGCAACTGTTATGCTATATACATTTACCTTTTAAGAGGAGGAAT |  | 0.471 | 
6 | ACAGACGAAGGAGCCGCAGAGAAGTTATTAAGGGATGAATAATCCCTAAATATAAATATCTCTCACTTATTTAAA | 0.755 |  | 
7 | CGACATGTCCCGCTTCTTTCATTAATCAGTTAGCAACTGTTTTGATATATACATTTACCTTTTAAGAGGAGGAAT |  | 0.648 | 
8 | CGACATGTCCCGCTTCTTTCATTAAACCGTTACCAACTGTTTTGCTATATACATTTACCTTTTAAGAGGAGGAAT |  | 0.189 | 
9 | ACAGACGAAGGAGCCGCAAAGAAGTTATTAAGGGATAATTAATCCCTCAATATAAATATCTCTCACTTATTTAAA | 0.759 |  | 1.13
10 | ACAGACGAAGGAGCCGCAAAGACGTTATTAAGGGATAAATAATCCCTCAATATAAATATCTCTCACTTATTTAAA | 1.2 |  | 
11 | ACAGACGAAGGAGCCGCAAAGAAGTTATTAAGGGATGGATAATCCATCAATATAAATATCTCTCACTTATTTAAA | 0.189 |  | 
12 | CGACATGTCCCGCTTCTTTCATTAATCCGTTGGCAACTGTTTTGCTATATACATTTACCTTTTAAGAGGAGGAAT |  | 0.739 | 
13 | ACAGACGAAGGAGCCGCAAAGAATGTATTAAGGGATGAATAATCCCTCAATATAAATATCTCTCACTTATTTAAA | 0.695 |  | 
14 | ACAGACGAAGGAGCCGCAAAGAAGTTATTAATGGATGAATTATCCCTCAATATAAATATCTCTCACTTATTTAAA | 0.0827 |  | 0.112
15 | ACAGACGAAGGAGCCGCAAAGAAGTTATTAAGGGATGAATAATCCTTCAAGATAAATATCTCTCACTTATTTAAA | 0.162 |  | 
16 | CGACATGTCCCGCTTCTTTCATTAAACCGTTATCAACTGTTTTGCTATATACATTTACCTTTTAAGAGGAGGAAT |  | 0.218 | 
17 | CGACATGTCCCGCTTCTTTCATTAATCCGTTATCAACTGTTTTGCTATATACATTTACGTTTTAAGAGGAGGAAT |  | 0.376 | 
18 | ACAGACGAAGGAGCCGCAAAGGAGTTATTAAGGGATGAAGAATCCCTCAATATAAATATCTCTCACTTATTTAAA | 0.859 |  | 
19 | ACAGACGAAGGAGCCGCAAAGAAGTTATTAAGGAATGAATAATCCCTCAATATAAAAAACTCTCACTTATTTAAA | 0.0884 |  | 
20 | ACAGACGAAGGAGCCGCATAGAAGTTATTAAGGGATGAATAATCCCTCAATAGAAATATCTCTCACTTATTTAAA | 0.149 |  | 
21 | CGACATGTCCCGCTTCTTTCATTATTCCGTTAGCAACTATTTTTCTATATACATTTACCTTTTAAGAGGAGGAAT |  | 0.956 | 

Row | Sequence | cleaved RNA product abundance [1] | cleaved RNA product abundance [2] | cleaved RNA product abundance [3]
22 | ACAGACGAAGGAGCCGCAAAGAAGGTATTAAGGGATGAATAATCCATCAATATAAATATCTCTCACTTATTTAAA | 0.13 |  | 
23 | CGACATGTCCCGCTTCTTTCATTAATCCGATAGCAACTGTTTTGATATATACATTTACCTTTTAAGAGGAGGAAT |  | 0.325 | 
24 | ACAGACGAAGGAGCCGCAAAGAAGTTATTAAGCGATGAATAATCCATCAATATAAATATCTCTCACTTATTTAAA | 0.154 |  | 0.121
25 | ACAGACGAAGGAGCCGCAAAGAAGTTATTAAGCGATGAATAATCCCTCAAGATAAATATCTCTCACTTATTTAAA | 0.0789 |  | 0.0861
26 | ACAGACGAAGGAGCCGCAAAGAAGTTATTAACGGATGAATAATCCCCCAATATAAATATCTCTCACTTATTTAAA | 0.173 |  | 
27 | CGACATGTCCCGCTTCTTTCATTAATCCGTTAGCAACTGTTTTGCTATATACATTTAGCTTTTAAGAGGAGGAAT |  | 1.07 | 
28 | CGACATGTCCCGCTTCTTTCATTAATCCGTTAGCGACTGTTTTGCTATATACATTTACCTTTTAAGAGGAGGAAT |  | 0.385 | 
29 | ACAGACGAAGGAGCCGCAAAGAAGATATTAAGGGATGAATAATCCCTCAATATAAATAACTCTCACTTATTTAAA | 1.07 |  | 
30 | ACAGACGAAGGAGCCGCACAGAAGTTCTTAAGGGATGAATAATCCCTCAATATAAATATCTCTCACTTATTTAAA | 0.275 |  | 
31 | ACAGACGAAGGAGCCGCAAACAATTTATTAAGGGATGAATAATCCCTCAATATAAATATCTCTCACTTATTTAAA | 0.756 |  | 
32 | ACAGACGAAGGAGCCGCAAATAAGTTAATAAGGGATGAATAATCCCCCAATATAAATATCTCTCACTTATTTAAA |  |  | 0.208
33 | ACAGACGAAGGAGCCGCAAAGAAGTTTTTAAGGTATGAATAATCCCTCAATATAAATATCTCTCACTTATTTAAA | 0.098 |  | 
34 | ACAGACGAAGGAGCCGCAAAGAAGTTATTAAAGGATAAATAATCCCTCAATATAAATATCTCTCACTTATTTAAA | 0.139 |  | 0.108
35 | CGACATGTCCCGCTTCTTTCATTAATACGTTAGCAACTGTTTTTCTATATACATTTACCTTTTAAGAGGAGGAAT |  | 0.455 | 
36 | ACAGACGAAGGAGCCGCAAAGAAGTTATTAAGAGATGAATAATCCCTCAATATAAAAATCTCTCACTTATTTAAA | 0.181 |  | 0.103
37 | CGACATGTCCCGCTTCTTTCATTAATCCGTTAGCAGCTGTTTTGCTATATACATTTACCTTTTAAGAGGAGGAAT |  | 0.754 | 
38 | ACAGACGAAGGAGCCGCAAAGAAGTTATTAAGGGATGAATAATCACTCAGTATAAATATCTCTCACTTATTTAAA | 0.0778 |  | 
39 | ACAGACGAAGGAGCCGCAAAGAAGGTATTAAGGGATGAATAATCCCTCAATATAAATTTCTCTCACTTATTTAAA | 0.849 |  | 
40 | ACAGACGAAGGAGCCGCAAAGAAGTAATTAAGGTATTAATAATCCCTCAATATAAATATCTCTCACTTATTTAAA | 0.0968 |  | 
41 | ACAGACGAAGGAGCCGCTAAGAAGTTATTAAGGTATGAATAATCCCTCAATATAAATATCTCTCACTTATTTAAA | 0.296 |  | 0.114
42 | ACAGACGAAGGAGCCGCAAAGAAGTTATTACGCGATGAATAATCCCTCAATATAAATATCTCTCACTTATTTAAA | 0.0746 |  | 

Row | Sequence | cleaved RNA product abundance [1] | cleaved RNA product abundance [2] | cleaved RNA product abundance [3]
43 | ACAGACGAAGGAGCCGCAAAGATGTTATTAAGGGATGAAAAATCCCTCAATATAAATATCTCTCACTTATTTAAA | 0.733 |  | 0.583
44 | ACAGACGAAGGAGCCGCAAAGAAGTTATTAATGGATGAATAATCCCCCAATATAAATATCTCTCACTTATTTAAA | 0.122 |  | 0.0983
45 | ACAGACGAAGGAGCCGCAAAGAAGTTATTAAGAGATGATTAATCCCTCAATATAAATATCTCTCACTTATTTAAA | 0.173 |  | 
46 | ACAGACGAAGGAGCCGCAAAGAAGTGATTAAGGGCTGAATAATCCCTCAATATAAATATCTCTCACTTATTTAAA | 0.309 |  | 
47 | ACAGACGAAGGAGCCGCAAAGAAGTGATTAAGGAATGAATAATCCCTCAATATAAATATCTCTCACTTATTTAAA | 0.115 |  | 
48 | ACAGACGAAGGAGCCGCAAACAAGTTATTAAGGGATGAATAATCCCTCAATATACATATCTCTCACTTATTTAAA | 0.536 |  | 0.644
49 | ACAGACGAAGGAGCCGCAGAGAAGTTATTAAGGGATGAATAATCCCTCAATATAAATAACTCTCACTTATTTAAA | 0.451 |  | 0.518
50 | CGACATGTCCCGCTTCTTTCATTAATTCGTTAGCAACAGTTTTGCTATATACATTTACCTTTTAAGAGGAGGAAT |  | 0.913 | 
51 | ACAGACGAAGGAGCCGCAAAGAAGTTATTAAGGGAAGAATTATCCCTCAATATAAATATCTCTCACTTATTTAAA | 0.771 |  | 
52 | CGACATGTCCCGCTTCTTTCATTAATCCGTTAGCAACTGTTTTGCGATATACATTTACTTTTTAAGAGGAGGAAT |  | 0.55 | 
53 | ACAGACGAAGGAGCCGCAAAGAAATTATTAAGGGATGAATAATCCCTCAATATAAATTTCTCTCACTTATTTAAA | 0.361 |  | 
54 | ACAGACGAAGGAGCCGCAAAGAAGTTATTTAGGGTTGAATAATCCCTCAATATAAATATCTCTCACTTATTTAAA | 0.344 |  | 0.225
55 | ACAGACGAAGGAGCCGCAAAGAAGTTATTAAAGGATGAATAATCCCTCAATATGAATATCTCTCACTTATTTAAA | 0.0586 |  | 0.094
56 | ACAGACGAAGGAGCCGCAAAGAAGTGATAAAGGGATGAATAATCCCTCAATATAAATATCTCTCACTTATTTAAA | 0.223 |  | 
57 | ACAGACGAAGGAGCCGCAAACAAGTTATTAAGGGATGAATAATCCATCAATATAAATATCTCTCACTTATTTAAA | 0.192 |  | 0.182
58 | ACAGACGAAGGAGCCGCAAAGAAGTTATAAAAGGATAAATAATCCCTCAATATAAATATCTCTCACTTATTTAAA |  |  | 0.141
59 | ACAGACGAAGGAGCCGCAAAGTAGTTTTTAAGGGATGAATAATCCCTCAATATAAATATCTCTCACTTATTTAAA | 0.37 |  | 
60 | CGACATGTCCCGCTTCTTTCATTACTCAGTTAGCAACTGTTTTGCTATATACATTTACCTTTTAAGAGGAGGAAT |  | 1.1 | 
61 | CGACATGTCCCGCTTCTTTCATTAATCCGTTAGCAATTGTTTTGCTATATACATTTACTTTTTAAGAGGAGGAAT |  | 1.01 | 
